Data published in US20220177587A1, “METHODS AND USES OF VARIANT CD80 FUSION PROTEINS AND RELATED CONSTRUCTS” (Alpine Immune Sciences, Inc., priority 2018, published 2022).
Residue numbers refer to the chain shown, from its start. In names and notes the source's numbering stands.

B1: E35D/M47V/N48I/L85Q (protein)
chain: VIHVTKEVKEVATLSCGHNVSVEELAQTRIYWQKDKKMVLTMMSGDVTIWPEYKNRTIFDITNNLSIVILALRPSDEGTYECVVQKYEKDAFKREHLAEVTLSVKAD
B2: T13R/E35D/M47LN68M (protein)
chain: B1 chain with T13R, V47L, T48N, V68M, Q85L
B3: H18Y/E35D/M47I/V68M/Y87N (protein, UniProt P33681 35-288, looked up, variant H18Y E35D M47I V68M Y87N)
T-lymphocyte activation …: VIHVTKEVKEVATLSCGYNVSVEELAQTRIYWQKDKKMVLTMMSGDINIWPEYKNRTIFDITNNLSIMILALRPSDEGTYECVVLKNEKDAFKREHLAEVTLSVKADFPTPSISDFEIPTSNIRRIICSTSGGFPEPHLSWLENGEELNAINTTVSQDPETELYAVSSKLDFNMTTNHSFMCLIKYGHLRVNQTFNWNTTKQEHFPDNLLPSWAITLISVNGIFVICCLTYCFAPRCRERRRNERLRRESVRPV
modifications: Fc fusion
B4: E35D/D46E/M47V/V68M/L85Q (protein, UniProt P33681 35-288, looked up, variant E35D D46E M47V V68M L85Q)
T-lymphocyte activation …: B3 T-lymphocyte activation … with Y18H, D46E, I47V, L85Q, N87Y
B5: E35D/M47V/V68M/L85M/Y87D (protein, UniProt P33681 35-288, looked up, variant E35D M47V V68M L85M Y87D)
T-lymphocyte activation …: B3 T-lymphocyte activation … with Y18H, I47V, L85M, N87D
B6: E35D/D46V/V68M/L85Q (protein)
chain: B1 chain with D46V, V47M, T48N, V68M
B7: E35D/V68M/K89N (protein)
chain: B1 chain with V47M, T48N, V68M, Q85L, K89N
B8: E35D/M47V/N48K (protein)
chain: B1 chain with T48K, Q85L
B9: E35D/D46V/M47L/V68M (protein)
chain: B1 chain with D46V, V47L, T48N, V68M, Q85L
B10: E35D/M47V/V68M/K89N (protein)
chain: B1 chain with T48N, V68M, Q85L, K89N
B11: D46V/V68M/L85Q (protein)
chain: B1 chain with D35E, D46V, V47M, T48N, V68M
B12: V68M/K89N (protein)
chain: B1 chain with D35E, V47M, T48N, V68M, Q85L, K89N
B13: E35D/D46V/V68M (protein)
chain: B1 chain with D46V, V47M, T48N, V68M, Q85L
B14: E35D/M47V/N48K/V68M (protein)
chain: B1 chain with T48K, V68M, Q85L
B15: E35D/D46V/M47L (protein)
chain: B1 chain with D46V, V47L, T48N, Q85L
B16: E35D/M47L/V68M/A71G (protein)
chain: B1 chain with V47L, T48N, V68M, A71G, Q85L
B17: A26E/V68M/A71G/D90G (protein)
chain: B1 chain with A26E, D35E, V47M, T48N, V68M, A71G, Q85L, D90G
B18: H18Y/M47L/A71G/D90G (protein)
chain: B1 chain with H18Y, D35E, V47L, T48N, A71G, Q85L, D90G
B19: H18R/A26P/E35D/D46N/M47V/V68M/A71G/D90P (protein, UniProt P33681 35-288, looked up, variant H18R A26P E35D D46N M47V V68M A71G D90P)
T-lymphocyte activation …: B3 T-lymphocyte activation … with Y18R, A26P, D46N, I47V, A71G, N87Y, D90P
modifications: Fc fusion
B20: H18V/A26P/E35D/M47V/V68L/A71G (protein, UniProt P33681 35-288, looked up, variant H18V A26P E35D M47V V68L A71G)
T-lymphocyte activation …: B3 T-lymphocyte activation … with Y18V, A26P, I47V, M68L, A71G, N87Y

target: T1, CD28 (Homo sapiens, UniProt P10747); assay: Flow binding to Jurkat/IL2 reporter cells (CD28); set-up: host or cells: Jurkat cells expressing an IL-2-luciferase reporter; conditions: Table E4; 33.3 nM; Jurkat cells (CD28)
Method: (§1) Binding of selected immunomodulatory fusion proteins to cognate binding partners was assessed. […] Cells were sorted in a Bio-Rad S3 Cell Sorter (Bio-Rad Corp., USA) to >98% purity. Jurkat/IL2 reporter cells, which endogenously express CD28, were used to detect binding to CD28.
(§2) For staining and analysis by flow cytometry, 100,000 cells of appropriate transfected cells were plated in 96-well round bottom plates. Cells were spun down and resuspended in staining buffer (phosphate buffered saline (PBS), 1% bovine serum albumin (BSA), and 0.1% sodium azide) for 20 minutes to block non-specific binding. […] Primary staining was performed on ice for 45 minutes, before washing cells in staining buffer twice. Phycoerythrin (PE)-conjugated anti-human Fc (Jackson ImmunoResearch, USA) was diluted 1:150, added to cells and incubated another 30 minutes on ice. Cells were then washed twice with 150 μL/well stain buffer, fixed in 2% formaldehyde/PBS, and analyzed on Intellicyt flow cytometer (Intellicyt Corp., USA). PE Mean Fluorescence Intensity (MFI) was calculated for each cell type with FlowJo Version 10 software (FlowJo LLC, USA).
(§3) Binding assays were carried out to assess the specificity and affinity of multivalent proteins to cell-expressed CTLA-4, CD28, and PD-L1 counter structures.
(§4) The EC50 for binding also was determined.

| CD28 MFI at 33.3 nM | Molecule |
| --- | --- |
| 692 | B1 |

same assay, conditions: Table E11; Jurkats (CD28); 33.3 nM

| CD28 MFI at 33.3 nM | Molecule |
| --- | --- |
| 15.6 | B2 |
| 4038 | B3 |

same assay, conditions: Table E16; consensus variants; Jurkats (CD28); 33.3 nM

| CD28 MFI at 33.3 nM | Molecule |
| --- | --- |
| 1429 | B3 |

target: T1, CD28; assay: Jurkat/IL2 + CHO/OKT3 +/- PD-L1 reporter assay: PD-L1-dependent CD28 costimulation; assay type: cell-based; set-up: host or cells: Jurkat cells expressing an IL-2-luciferase reporter; conditions: Table E13; Jurkat/IL2 + CHO/OKT3/PD-L1; 5.0 nM
Method: Jurkat cells were then plated at 50 μL/well for a total of 100,000 cells per well.
To each well, 25 μL of test protein was added to the Jurkat cells. […] The Jurkat cells with test or control proteins were incubated for 15 minutes at room temperature. CHO-derived artificial antigen presenting cells (aAPC) displaying transduced cell surface anti-CD3 single chain Fv (OKT3) (i.e., no PD-L1), or OKT3 and PD-L1 (i.e., +PD-L1), were brought to 0.8×10^6 cells/mL, and 25 μL of cells were added to each well, bringing the final volume of each well to 100 μL. […] Jurkat cells and CHO cells were incubated for 5 hours at 37 degrees Celsius in a humidified 5% CO2 incubation chamber. Plates were then removed from the incubator and acclimated to room temperature for 15 minutes. 100 μL of a cell lysis and luciferase substrate solution (BioGlo luciferase reagent, Promega) were added to each well and the plates were incubated on an orbital shaker for 10 minutes. Luminescence was measured with a 1 second per well integration time using a BioTek Cytation luminometer, and a relative luminescence value (RLU) was determined for each test sample.

| Relative Luciferase Units (RLU), CD80 Cone 5.0 nM [RLU] | Molecule |
| --- | --- |
| 1006 | B4 |
| 1181 | B5 |

same assay, conditions: Table E21; Jurkat/IL2 + CHO/OKT3/PD-L1; CD80 Conc 5.0 nM

| Relative Luciferase Units (RLU), CD80 Conc 5.0 nM [RLU] | Molecule |
| --- | --- |
| 864 | B6 |
| 537 | B7 |
| 561 | B8 |
| 681 | B9 |
| 779 | B10 |
| 267 | B11 |
| 100 | B12 |
| 799 | B13 |
| 747 | B14 |
| 746 | B15 |

same assay, conditions: Table E22; Jurkat/IL2 + CHO/OKT3/PD-L1; CD80 Conc 5.0 nM

| Relative Luciferase Units (RLU), CD80 Conc 5.0 nM [RLU] | Molecule |
| --- | --- |
| 745 | B16 |
| 590 | B17 |
| 675 | B18 |

same assay, conditions: Table E24; Jurkat/IL2 + CHO/OKT3/PD-L1; 5.0 nM

| Relative Luciferase Units (RLU), CD80 Conc 5.0 nM [RLU] | Molecule |
| --- | --- |
| 972 | B19 |
| 881 | B20 |

target: huCTLA4 (Homo sapiens, UniProt P16410); assay: Flow binding to CHO cells stably expressing CTLA4; set-up: huCTLA4 and huPD-L1, full-length mammalian surface expression constructs were generated; expressed in transfected cells; host or cells: CHO cells, lentiviral transduction, sorted to >98% purity; conditions: Table E11; CHO cells stably expressing CTLA4; 33.3 nM
Sequence (P16410 36-223): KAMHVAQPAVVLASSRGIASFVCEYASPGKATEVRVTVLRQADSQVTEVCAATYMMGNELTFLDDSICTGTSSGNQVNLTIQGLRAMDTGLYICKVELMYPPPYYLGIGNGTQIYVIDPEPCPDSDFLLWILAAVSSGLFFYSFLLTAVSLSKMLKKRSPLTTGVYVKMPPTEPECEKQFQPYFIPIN
Method: as §1, §2, §3, §4

| CTLA4 MFI at 33.3 nM | Molecule |
| --- | --- |
| 15533 | B4 |
| 13936 | B5 |

same assay, conditions: Table E19; CHO cells stably expressing CTLA4; 33.3 nM

| CTLA4 MFI at 33.3 nM | Molecule |
| --- | --- |
| 32176 | B6 |
| 24838 | B7 |
| 47430 | B8 |
| 34319 | B9 |
| 29493 | B10 |
| 7567 | B11 |
| 2330 | B12 |
| 31195 | B13 |
| 32913 | B14 |
| 44977 | B15 |

same assay, conditions: Table E20; CHO cells stably expressing CTLA4; 33.3 nM

| CTLA4 MFI at 33.3 nM | Molecule |
| --- | --- |
| 24656 | B16 |
| 8666 | B17 |
| 18162 | B18 |

same assay, conditions: Table E23; CD80 IgV-Fc (inert) at 33.3 nM; CHO cells stably expressing CTLA4

| CTLA4 MFI at 33.3 nM | Molecule |
| --- | --- |
| 17327 | B19 |
| 13669 | B20 |

target: huPD-L1 (Homo sapiens, UniProt Q9NZQ7); assay: Flow binding to CHO cells stably expressing PD-L1; set-up: huCTLA4 and huPD-L1, full-length mammalian surface expression constructs were generated; expressed in transfected cells; host or cells: CHO cells, lentiviral transduction, sorted to >98% purity; conditions: Table E11; CHO cells stably expressing PD-L1; 33.3 nM
Sequence (Q9NZQ7 19-290): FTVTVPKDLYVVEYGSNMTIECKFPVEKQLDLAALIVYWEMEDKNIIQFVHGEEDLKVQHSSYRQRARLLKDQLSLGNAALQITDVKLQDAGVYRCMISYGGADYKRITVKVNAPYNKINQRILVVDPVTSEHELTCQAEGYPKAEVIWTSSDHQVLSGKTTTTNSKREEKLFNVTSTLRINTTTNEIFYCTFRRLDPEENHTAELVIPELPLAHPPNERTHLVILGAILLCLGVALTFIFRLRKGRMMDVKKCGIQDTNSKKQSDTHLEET
Method: as §1, §2, §3, §4

| PD-L1 MFI at 33.3 nM | Molecule |
| --- | --- |
| 19969 | B2 |
| 1723 | B4 |
| 1721 | B5 |

same assay, conditions: Table E19; CHO cells stably expressing PD-L1; 33.3 nM

| PD-L1 MFI at 33.3 nM | Molecule |
| --- | --- |
| 4852 | B8 |
| 21827 | B10 |
| 26114 | B13 |
| 23479 | B14 |
| 7988 | B15 |

same assay, conditions: Table E20; CHO cells stably expressing PD-L1; 33.3 nM

| PD-L1 MFI at 33.3 nM | Molecule |
| --- | --- |
| 27872 | B16 |
| 3195 | B17 |

same assay, conditions: Table E23; CD80 IgV-Fc (inert) at 33.3 nM; CHO cells stably expressing PD-L1

| PD-L1 MFI at 33.3 nM | Molecule |
| --- | --- |
| 29306 | B19 |
| 55417 | B20 |
